Substitutions are numbered along the chain they refer to.
B1: hRBD8 (antibody, V domains shown)
VH: QVQLQQWGAGRLKPSETLSLTCAVYGGSFSGYYWSWIRQPPGKGLEWIGEIDHSGSTNYNSSLKSRVTISVDTSKKWFSLKLSSVTAADTAVYYCARAHLIGDCGGGRCYSGPDPSNWFDPWGQGTLVTVSS
VL: SSELTQDPAVSVALGQTVRITCQGDSLRSYYASWYQQKPGQAPILVIYGKDNRPSGIPDRFSGSSSENTASLTITGAQAEDEADYYCNCRDTSGNHPVFGGGTKLTVL
B2: hRBD14 (antibody, V domains shown)
VH: EVQLVESGGGLVQPGGSLRLSCAASGFSFSSSDMHWVRQATGKGLEWVSGIGTSGDTYYLGSVKGRFTISRDDAKNSFYLQMNSLRAGDTAVYYCARGEMAATGLWYYFDYWGQGTLVTVSS
VL: not shown
B3: hRBD13 (antibody, V domains shown)
VH: QVQLVESGGGVVQPGRSLRLSCAVSGFTFRNYGMDWVRQAPGKGLEWVAVISYDGSNKYYADSVKGRFTISRDNSKNTLFLHLNSLRAEDTAVYYCAKAGGGPYCGGGNCYMHYFDYWGQGTQVTVSS
VL: DIQMTQSPSSLSASVGDRVTITCQASQDINNYLNWYQQKPGKAPKLLIYDASNLETGVPLRFSGSGSATHFSFTISSLQPEDIATYYCQQYDHLPCTFGQGTKLEIR
B4: hRBD16 (antibody, V domains shown)
VH: EVQLVESGGALIQPGGSLRLSCAASGFTVSSNYMYWVRQAPGKGLEWVSLIYPGGSTFYADSVKGRFTISRDNSENTLYLQMNSLRAEDTAVYYCARGPYGDSNWGQGTLVTVSS
VL: B3 VL with N30R, E55K, L60S, A68G, H70D, S72T, H93N, C96I, K103R, R107K
B5: hRBD15 (antibody, V domains shown)
VH: QVQLVQSGAEVKKPGASVKVSCKASGYTFTSQYMHWVRQAPGQGLEWMGIINPSGGSTSYAQKFQGRVTMTSDTSTSTVYMELSSLRSEDTAVYYCARDIYFVPARGGFDPWGQGTLVTVSS
VL: EIVLTQSPGTLSLSPGERATLSCRASQSIISSYLAWYQQKPGQAPRLLIYGASSRATGIPDRFSGSGSGTDFTLTISRLEPEDFAVYYCQQSGSAPRYTFGQGTKLEIK
B6: hRBD3 (antibody, V domains shown)
VH: QLQLQESGPRLVRPSETLSLTCTVSGGSINSGTHYCGWIRQSPGKGLEWIGSIYYSGTTYYNPSLKSRVTISVDTSKNQFSLKLSSVTAADTAVYFCARRRAGSYFKDLSDYWGQGTLVTVSS
VL: NFMLTQPHSVSESPGKTVTISCTRSSGSIASNYVQWYQQRPGGAPTTVIYEDNQRPSGVPDRFSGSIDTSSNSASLTISGLKTDDEADYYCQSYDSTNHEVFGGGTKLTVL
B7: hRBD4 (antibody, V domains shown)
VH: QLQLQESGPGLVKPSETLSLTCTVSGGSISTSSHYCAWIRQPPGKGLEWIGSIYYRGSTYYNPSLKSRVTISVDTSKNHFSLKLSSVTAADTAVYYCARRRAGSYYKDLFDYWGQGTLVTVSS
VL: B6 VL with G43S, T69S, D84E, S96N, T97S
B8: hRBD12 (antibody, V domains shown)
VH: EVQLVESGGGLVQPGGSLRLSCAASGLTVSSNYMSWVRQAPGKGLEWVSVIYSGGSTYYADSVKGRFTISRDNSKNTLYLLMNSLRAEDTAVYYCARDLQQLGGMDVWGQGTTVTVSS
VL: not shown
B9: hRBD5 (antibody, V domains shown)
VH: QVQLQQWGAGLLQPSETLSLTCAVYGGSFSDYYWSWIRQPPGRGLEWIGEIDHSGSTNYNPSLKSRVTILVDTSKNQFSLKLSSVTAADTAVYYCARAHLIGHCGDGGCYSGPDPSSWFDPWGQGTLVIVSS
VL: SSELTQDPAVSVALGQTVRITCQGDSLRRYFASWYQQKPGQAPVLVIYGKNIRPSGIPDRFSGSSSGNTGSLTITGAQAEDEADYYCHSRDSSGHHPLFGGGTKLTVL
B10: hRBD6 (antibody, V domains shown)
VH: QVQLQQWGAGLLKPSETLSLSCAVYGGAFSDYYWSWIRQPPGKGLEWIGEIDLSGSTNYNPSLKSRVTISVDTSKNQFSLKLISVTAADTAVYYCARTHLIGYCSGGSCYSGPDPSNWFDPWGQGTLVTVSS
VL: B1 VL with I44V, D51N, E67G, C89S, N95H
B11: hRBD1 (antibody, V domains shown)
VH: QVQLVQSGSELKKPGASVKVSCKASGNTLTNHALNWVRQAPGQGLEWMGWINTNTGIPTYAQGFTGRFVFSLDTSVSTAYLQISSLKAEDTAVYYCARVGQTAIAALDDAFDIWGQGTMVTVSS
VL: not shown
B12: hRBD2 (antibody, V domains shown)
VH: B11 VH with N27Y, L29F, T30S, H32Y, L34I, I57H, T74A, S77T, Q101R
VL: not shown
B13: hRBD9 (antibody, V domains shown)
VH: EVQLVESGGGLIQPGGSLRLSCAASGLTVSSNYMNWVRQAPGKGLEWVSVLYSGGSTYYADSVKGRFTISRDNSKNTLYLQMNSLRAEDTAVYYCARDLVAYGMDVWGQGTTVTVSS
VL: DIQLTQSPSFLSASVGDRVTITCRASQGISSDLAWYQQKPGKAPKLLIYAASTLQSGVPSRFSGSGSGTEFTLTISSLQPEDFATYYCQQLNSYPTFGQGTRLEIK

Each binder was assayed against T1, receptor-binding domain (RBD) of the wild-type SARS-CoV-2 spike protein (SARS-CoV-2, UniProt P0DTC2 333-527) (assay: BLI). Details: both partners purified.
T1 construct: also called SARS-CoV-2 RBD

B1 was tested. Which Kd did it give?
The Kd was 9.74 nM.

For B2, which Kd is on record?
The Kd was 0.618 nM.

Which Kd does the source give for B3 here?
The Kd was less than 0.001 nM.

For B4, which Kd is on record?
The Kd was less than 0.001 nM.

For B5, which Kd is on record?
Its Kd is 0.0382 nM.

B6 was tested. Which Kd did it give?
Its Kd is less than 0.001 nM.

B7 was tested. Which Kd did it give?
The Kd was 0.491 nM.

Which Kd does the source give for B8 here?
Its Kd is 0.219 nM.

With B9 as the binder, how does the Kd read?
Its Kd is 0.127 nM.

B10 was tested. Which Kd did it give?
Its Kd is 5.09 nM.

How did the Kd turn out when B11 was run?
The Kd was 0.0171 nM.

B12 was tested. Which Kd did it give?
Its Kd is 0.0652 nM.

With B13 as the binder, how does the Kd read?
Its Kd is 0.126 nM.

The binders below were run against T1, receptor-binding domain (RBD) of the … (assay: cell-based or functional assay). Details: not given.

With B1 as the binder, how does the other read?
Its other is 49.6 ng/mL.

Which other does the source give for B3 here?
The other was 48600 ng/mL.

B5 was tested. Which other did it give?
Its other is 64400 ng/mL.

Which other does the source give for B6 here?
The other was 11.6 ng/mL.

B7 was tested. Which other did it give?
The other was 8.9 ng/mL.

Which other does the source give for B8 here?
Its other is 20.8 ng/mL.

For B9, which other is on record?
Its other is 10.7 ng/mL.

Which other does the source give for B10 here?
The other was 32.7 ng/mL.

B11 was tested. Which other did it give?
The other was 83 ng/mL.

Which other does the source give for B12 here?
Its other is 91.7 ng/mL.

With B13 as the binder, how does the other read?
The other was 20.2 ng/mL.

— publication PMC12167710 (Nature Biotechnology, 2024)
